According to the Immune Epitope Database (IEDB):

Key:
HLA-A*03:01 [1] = test: IEDB peptide-MHC binding, purified MHC/competitive/fluorescence; ≥ and ≤ were set here for values at or beyond the usual limits of such assays; conditions: source organism: Zaire ebolavirus
HLA-A*11:01 [2] = test: as above; conditions: source organism: Zaire ebolavirus
HLA-B*15:01 [3] = test: as above
HLA-A*02:01 [4] = test: as above
HLA-B*46:01 = test: IEDB peptide-MHC binding, purified MHC/competitive/fluorescence; filed as Kd, often an IC50 or EC50 that approximates it; ≥ and ≤ were set here for values at or beyond the usual limits of such assays; conditions: source organism: Vibrio parahaemolyticus K5030
HLA-B*27:03 = test: as above; conditions: source organism: Vibrio parahaemolyticus K5030
HLA-A*03:01 [5] = test: as above; conditions: source organism: Vibrio parahaemolyticus K5030
HLA-A*26:01 [6] = test: as above; conditions: source organism: Vibrio parahaemolyticus K5030
HLA-A*02:19 = test: as above; conditions: source organism: Vibrio parahaemolyticus K5030
HLA-B*15:01 [7] = test: as above; conditions: source organism: Vibrio parahaemolyticus K5030
HLA-B*51:01 = test: as above; conditions: source organism: Vibrio parahaemolyticus K5030
HLA-A*02:03 = test: as above; conditions: source organism: Vibrio parahaemolyticus K5030
HLA-A*02:12 = test: as above; conditions: source organism: Vibrio parahaemolyticus K5030
HLA-A*02:11 = test: as above; conditions: source organism: Vibrio parahaemolyticus K5030
HLA-B*57:01 [8] = test: as above; conditions: source organism: Vibrio parahaemolyticus K5030
HLA-B*18:01 = test: as above; conditions: source organism: Vibrio parahaemolyticus K5030
HLA-A*02:01 [9] = test: as above; conditions: source organism: Vibrio parahaemolyticus K5030
HLA-B*39:01 = test: as above; conditions: source organism: Vibrio parahaemolyticus K5030
HLA-A*29:02 = test: as above; conditions: source organism: Vibrio parahaemolyticus K5030
HLA-A*03:01 [10] = test: IEDB peptide-MHC binding, purified MHC/direct/fluorescence; filed as Kd, often an IC50 or EC50 that approximates it; ≥ and ≤ were set here for values at or beyond the usual limits of such assays
HLA-B*27:05 = test: as above
HLA-A*26:01 [11] = test: as above
HLA-A*01:01 = test: as above
HLA-A*11:01 [12] = test: as above
HLA-B*15:01 [13] = test: as above
HLA-B*40:01 = test: as above
HLA-B*44:02 = test: as above
HLA-A*02:01 [14] = test: as above
HLA-B*07:02 = test: as above
HLA-B*08:01 = test: as above
HLA-A*69:01 = test: as above
HLA-A*30:01 = test: as above
HLA-A*24:03 = test: as above
HLA-B*58:01 = test: as above
HLA-A*23:01 = test: as above; conditions: source organism: Orthohantavirus hantanense
HLA-C*15:02 = test: as above
HLA-B*35:01 = test: as above
HLA-B*15:17 = test: as above
HLA-A*31:01 = test: as above
HLA-B*57:01 [15] = test: as above
HLA-A*24:02 = test: IEDB peptide-MHC binding, purified MHC/competitive/fluorescence; ≥ and ≤ were set here for values at or beyond the usual limits of such assays; conditions: source organism: Zaire ebolavirus
[16] = source organism: Zaire ebolavirus
[17] = source organism: Giardia lamblia ATCC 50803
[18] = source organism: Camelpox virus M-96
[19] = source organism: Campylobacter jejuni RM1221
[20] = source organism: Campylobacter jejuni
[21] = source organism: Vibrio parahaemolyticus
[22] = source organism: Vaccinia virus
[23] = source organism: Pseudomonas savastanoi
[24] = source organism: Pseudomonas aeruginosa

For AALSSLAKH, the IC50 (HLA-A*03:01 [1]) was ≥ 92.7 µM, the IC50 (HLA-A*11:01 [2]) was 9.21 µM and the IC50 (HLA-B*15:01 [3]; [16]) was ≥ 156 µM. The IC50 (HLA-A*02:01 [4]; [16]) was ≥ 98.5 µM.

AGGWVLWKV was tested, and the Kd (HLA-B*46:01) was ≥ 20 µM, the Kd (HLA-B*27:03) was ≥ 20 µM and the Kd (HLA-A*03:01 [5]) was ≥ 20 µM. The Kd (HLA-A*26:01 [6]) was ≥ 20 µM, the Kd (HLA-A*02:19) was ≥ 20 µM and the Kd (HLA-B*15:01 [7]) was ≥ 20 µM. The Kd (HLA-B*51:01) was ≥ 20 µM, the Kd (HLA-A*02:03) was ≥ 20 µM and the Kd (HLA-A*02:12) was ≥ 20 µM. The Kd (HLA-A*02:11) was 0.0015 µM, the Kd (HLA-B*57:01 [8]) was ≥ 20 µM and the Kd (HLA-B*18:01) was ≥ 20 µM. For the same sequence, the Kd (HLA-A*02:01 [9]) was ≥ 20 µM, the Kd (HLA-B*39:01) was ≥ 20 µM and the Kd (HLA-A*29:02) was ≥ 20 µM.

AIPYFYKGK was tested, and the Kd (HLA-A*03:01 [10]; [17]) was ≥ 20 µM, the Kd (HLA-B*27:05; [17]) was ≥ 20 µM and the Kd (HLA-A*26:01 [11]; [17]) was ≥ 20 µM. For the same sequence, the Kd (HLA-A*01:01; [17]) was ≥ 20 µM, the Kd (HLA-A*11:01 [12]; [17]) was 0.308 µM and the Kd (HLA-B*15:01 [13]; [17]) was ≥ 20 µM. The Kd (HLA-B*40:01; [17]) was ≥ 20 µM, the Kd (HLA-B*44:02; [17]) was ≥ 20 µM and the Kd (HLA-A*02:01 [14]; [17]) was ≥ 20 µM. For the same sequence, the Kd (HLA-B*07:02; [17]) was ≥ 20 µM, the Kd (HLA-B*08:01; [17]) was ≥ 20 µM and the Kd (HLA-A*69:01; [17]) was ≥ 20 µM. The Kd (HLA-A*30:01; [17]) was 12.5 µM, the Kd (HLA-A*24:03; [17]) was 13 µM and the Kd (HLA-B*58:01; [17]) was ≥ 20 µM.

FFQNETQKY was tested, and the Kd (HLA-A*23:01) was 1.4 µM and the Kd (HLA-A*24:03; source organism: Orthohantavirus hantanense) was 1.3 µM.

In the case of ITASKDLCF, the Kd (HLA-C*15:02; [17]) is reported as 3.85 µM, the Kd (HLA-A*03:01 [10]; [17]) is reported as ≥ 20 µM and the Kd (HLA-B*27:05; [17]) is reported as ≥ 20 µM. The Kd (HLA-A*26:01 [11]; [17]) was ≥ 20 µM, the Kd (HLA-A*01:01; [17]) was 8.69 µM and the Kd (HLA-A*11:01 [12]; [17]) was ≥ 20 µM. It also gave a Kd (HLA-B*15:01 [13]; [17]) of 0.301 µM, a Kd (HLA-B*35:01; [17]) of 0.365 µM and a Kd (HLA-B*15:17; [17]) of 0.0028 µM. For the same sequence, the Kd (HLA-B*40:01; [17]) was ≥ 20 µM, the Kd (HLA-B*44:02; [17]) was ≥ 20 µM and the Kd (HLA-A*02:01 [14]; [17]) was ≥ 20 µM. The Kd (HLA-B*07:02; [17]) was ≥ 20 µM, the Kd (HLA-B*08:01; [17]) was ≥ 20 µM and the Kd (HLA-A*69:01; [17]) was ≥ 20 µM. The Kd (HLA-A*31:01; [17]) was ≥ 20 µM and the Kd (HLA-B*58:01; [17]) was 0.433 µM.

KSLVQYIKF was tested, and the Kd (HLA-C*15:02; source organism: Vaccinia virus WR) was ≥ 20 µM, the Kd (HLA-B*57:01 [15]; [18]) was 0.508 µM and the Kd (HLA-B*58:01; [18]) was 0.0635 µM.

For KSNEKNMDF, the Kd (HLA-C*15:02; source organism: Campylobacter jejuni subsp. jejuni NCTC 11168 = ATCC 700819) was 0.15 µM, the Kd (HLA-A*03:01 [10]; [19]) was ≥ 20 µM and the Kd (HLA-B*27:05; [19]) was ≥ 20 µM. For the same sequence, the Kd (HLA-A*26:01 [11]; [19]) was ≥ 20 µM, the Kd (HLA-A*11:01 [12]; [19]) was ≥ 20 µM and the Kd (HLA-B*15:01 [13]; [20]) was 0.215 µM. The Kd (HLA-B*35:01; [20]) was 3.16 µM, the Kd (HLA-B*15:17; [19]) was 0.0073 µM and the Kd (HLA-B*40:01; [19]) was ≥ 20 µM. For the same sequence, the Kd (HLA-B*44:02; [19]) was ≥ 20 µM, the Kd (HLA-B*57:01 [15]; [19]) was 0.467 µM and the Kd (HLA-A*02:01 [14]; [19]) was ≥ 20 µM. For the same sequence, the Kd (HLA-B*07:02; [19]) was ≥ 20 µM, the Kd (HLA-B*08:01; [19]) was ≥ 20 µM and the Kd (HLA-A*69:01; [19]) was ≥ 20 µM. The Kd (HLA-A*31:01; [19]) was ≥ 20 µM and the Kd (HLA-B*58:01; [20]) was 0.063 µM.

QLIIQAFEA was tested, and the IC50 (HLA-B*15:01 [3]; [16]) was ≥ 720 µM and the IC50 (HLA-A*02:01 [4]; [16]) was 0.884 µM.

In the case of RATTELRTF, the IC50 (HLA-B*15:01 [3]; [16]) is reported as 55.5 µM and the IC50 (HLA-A*24:02) is reported as 0.6 µM.

In the case of RTHTLRDAK, the Kd (HLA-A*03:01 [10]; [21]) is reported as 0.93 µM, the Kd (HLA-B*27:05; [21]) is reported as ≥ 20 µM and the Kd (HLA-A*26:01 [11]; [21]) is reported as ≥ 20 µM. The Kd (HLA-A*01:01; [21]) was ≥ 20 µM, the Kd (HLA-A*11:01 [12]; [21]) was 0.0535 µM and the Kd (HLA-B*40:01; [21]) was ≥ 20 µM. The Kd (HLA-A*02:01 [14]; [21]) was ≥ 20 µM, the Kd (HLA-B*07:02; [21]) was ≥ 20 µM and the Kd (HLA-B*08:01; [21]) was ≥ 20 µM. The Kd (HLA-A*69:01; [21]) was ≥ 20 µM, the Kd (HLA-A*30:01; [21]) was 0.0209 µM and the Kd (HLA-A*24:03; [21]) was 0.472 µM. The Kd (HLA-A*31:01; [21]) was 0.134 µM and the Kd (HLA-B*58:01; [21]) was ≥ 20 µM.

In the case of RTRFFCIPK, the Kd (HLA-A*03:01 [10]; [17]) is reported as 0.0273 µM, the Kd (HLA-B*27:05; [17]) is reported as 0.321 µM and the Kd (HLA-A*26:01 [11]; [17]) is reported as ≥ 20 µM. For the same sequence, the Kd (HLA-A*01:01; [17]) was ≥ 20 µM, the Kd (HLA-A*11:01 [12]; [17]) was 0.0209 µM and the Kd (HLA-B*15:01 [13]; [17]) was ≥ 10 µM. The Kd (HLA-B*40:01; [17]) was ≥ 20 µM, the Kd (HLA-B*44:02; [17]) was ≥ 20 µM and the Kd (HLA-A*02:01 [14]; [17]) was 17.4 µM. For the same sequence, the Kd (HLA-B*07:02; [17]) was ≥ 20 µM, the Kd (HLA-B*08:01; [17]) was ≥ 20 µM and the Kd (HLA-A*69:01; [17]) was ≥ 20 µM. For the same sequence, the Kd (HLA-A*30:01; [17]) was 0.00137 µM, the Kd (HLA-A*24:03; [17]) was ≥ 20 µM and the Kd (HLA-A*31:01; [17]) was 0.0182 µM. The Kd (HLA-B*58:01; [17]) was ≥ 20 µM.

In the case of SQYVDDANL, the IC50 (HLA-B*15:01 [3]; [22]) is reported as ≥ 404 µM and the IC50 (HLA-A*02:01 [4]; [22]) is reported as 45.4 µM.

TNFEFFGKL gave a Kd (HLA-C*15:02; source organism: Caenorhabditis elegans) of 1.6 µM.

In the case of TYYPQVVLG, the Kd (HLA-A*03:01 [10]; [23]) is reported as ≥ 20 µM, the Kd (HLA-B*27:05; [23]) is reported as ≥ 20 µM and the Kd (HLA-A*01:01; [23]) is reported as ≥ 20 µM. For the same sequence, the Kd (HLA-A*11:01 [12]; [24]) was 5.12 µM, the Kd (HLA-B*15:01 [13]; [24]) was ≥ 20 µM and the Kd (HLA-B*40:01; [23]) was ≥ 20 µM. The Kd (HLA-A*02:01 [14]; [23]) was ≥ 20 µM, the Kd (HLA-B*07:02; [23]) was ≥ 20 µM and the Kd (HLA-B*08:01; [23]) was ≥ 20 µM. For the same sequence, the Kd (HLA-A*69:01; [23]) was ≥ 20 µM, the Kd (HLA-A*30:01; [24]) was ≥ 10 µM and the Kd (HLA-A*24:03; [24]) was 3.2 µM. For the same sequence, the Kd (HLA-B*58:01; [24]) was 6.85 µM.
